The test concerns the target T1, HA of H3 (A/Aichi/2/1968)/PR8 H3N1 (PR8-RS) (Influenza A virus A/Aichi/2/1968 (H3), UniProt P03437 17-566).
T1 construct: whole, on cells; also called A/Aichi/2/1968 H3N1-RG
In words: immunofluorescence on virus-infected MDCK cells, antibody 40μg/mL.

The values that follow come from patent CN106928350A (TIANJIN INST IND BIOTECHNOLOGY CAS; SUZHOU GENEWIZ …, dated 2017).

B1: AF4H1K1 (antibody, V domains shown)
VH: QVQLVESGGGVVQPGTSLRLSCEASGFTSSAYAMHWVRQAPGKGLEWVAVITFDGGYQYYADSVKGRFTISRDISRNTLHLHMNSLRAEDTAVYYCARDPLTKLLPFDWVSGGYFDYWGQGTLVTVSS
VL: not shown
notes: also called AF4H1K1 IgG; AF4H1K1IgG
With B1, the binding result is listed as “binds”.
